The target in test [1] is T1, human CD19 (human, UniProt P15391 20-556).
T1 sequence (looked up): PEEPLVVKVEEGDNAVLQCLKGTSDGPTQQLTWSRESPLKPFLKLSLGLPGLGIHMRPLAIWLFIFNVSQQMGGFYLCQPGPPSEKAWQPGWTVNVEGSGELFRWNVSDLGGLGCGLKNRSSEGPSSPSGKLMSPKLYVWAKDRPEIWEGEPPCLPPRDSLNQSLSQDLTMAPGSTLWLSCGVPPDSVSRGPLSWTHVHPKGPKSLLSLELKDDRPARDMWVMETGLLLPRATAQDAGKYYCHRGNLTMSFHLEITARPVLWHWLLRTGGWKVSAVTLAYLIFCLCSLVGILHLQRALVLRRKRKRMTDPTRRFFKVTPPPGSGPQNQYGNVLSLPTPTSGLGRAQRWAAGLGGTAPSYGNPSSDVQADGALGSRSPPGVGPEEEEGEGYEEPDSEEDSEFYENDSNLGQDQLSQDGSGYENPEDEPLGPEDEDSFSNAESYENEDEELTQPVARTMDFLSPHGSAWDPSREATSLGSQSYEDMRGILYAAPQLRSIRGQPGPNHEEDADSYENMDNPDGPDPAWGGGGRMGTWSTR
Kind of test: cell-based or functional assay.

Test [2] concerns the target T1, human CD19. Kind of test: flow cytometry on Ramos cells. As for the experimental part: The Ramos cells were plated in 96-well U-bottom plates (BD) at a density of 1×10⁵ cells/well. The purified antibody were serially diluted in the staining buffer (1×PBS/1% BSA) and incubated with cells for 1 hr at 4° C. The cells were then washed twice with staining buffer (BSA/1×PBS). […] The cells were then washed twice and re-suspended in 100 μL staining buffer. The fluorescence intensity was measured by flow cytometry (BD Canto II) and analyzed by FlowJo.
Binding activity of the selected subclones were tested on Ramos cell by flow cytometry (FIG. 4).
On the technique in general: Flow cytometry measures light scatter and fluorescence of single cells or particles in a stream.

In a further test the target is T2, cynomolgus monkey CD19 (cynomolgus monkey, UniProt A0A2K5W8L9 20-557).
T2 construct: whole, on cells; also called cyno CD19; cPro1
T2 sequence: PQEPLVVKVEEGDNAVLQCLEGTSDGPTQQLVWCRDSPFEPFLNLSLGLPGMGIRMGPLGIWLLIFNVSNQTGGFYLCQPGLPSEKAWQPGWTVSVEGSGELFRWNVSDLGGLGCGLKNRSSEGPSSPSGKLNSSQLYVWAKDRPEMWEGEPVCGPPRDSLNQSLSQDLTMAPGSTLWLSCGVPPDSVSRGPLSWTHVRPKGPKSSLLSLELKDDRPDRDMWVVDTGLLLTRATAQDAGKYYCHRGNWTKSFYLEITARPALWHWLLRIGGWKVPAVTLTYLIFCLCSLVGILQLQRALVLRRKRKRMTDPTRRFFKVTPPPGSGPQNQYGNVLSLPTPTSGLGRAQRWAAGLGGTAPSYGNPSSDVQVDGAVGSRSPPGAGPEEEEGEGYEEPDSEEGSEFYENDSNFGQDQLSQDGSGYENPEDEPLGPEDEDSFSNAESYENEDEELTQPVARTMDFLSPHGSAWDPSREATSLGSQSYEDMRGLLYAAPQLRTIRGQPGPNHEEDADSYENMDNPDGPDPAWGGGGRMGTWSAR
Description: flow cytometry on cynomolgus CD19 transfected CHO-K1 cells. How it is done: The cynomolgus CD19 transfected CHO-K1 cells were plated in 96-well U-bottom plates (BD) at a density of 1×10⁵ cells/well. The purified antibody were serially diluted in the staining buffer (1×PBS/1% BSA) and incubated with cells for 1 hr at 4° C. The cells were then washed twice with staining buffer (BSA/1×PBS). […] The cells were then washed twice and re-suspended in 100 μL staining buffer. The fluorescence intensity was measured by flow cytometry (BD Canto II) and analyzed by FlowJo.
The binding activity to cynomogus monkey CD19 of candidate antibodies was evaluated using cynomolgus monkey CD19 transfected CHO-K1 cell line (FIG. 5).

Test [3] has as its target T1, human CD19. Description: flow cytometry on CD19 transfected CHO-K1 cells, Scatchard analysis. How it is done: The CD19 transfected CHO-K1 cells or Ramos cells were plated in a 96-well plates (BD) at a density of 5×10⁴ cells/well. Antibodies to be tested were serially diluted in the staining buffer (1×PBS/1% BSA) and incubated with cells at 4° C. for 1 hr.
The affinity of selected candidate antibodies were tested on CD19 transfected CHO-K1 cell by flow cytometry.

This is an account of results in patent US20200289563A1 (WUXI BIOLOGICS IRELAND, published 2020).

B1: WBP7011_4.155.8 (antibody, V domains shown)
VH: EIQLQQSGPELVKPGASVKVSCKASGYAFTSYNMYWVKQSHGKSLEWIGYIDPYNGDTTYNQKFKGKATLTVDKSSSTAYMHLNSLTSEDSAVYYCLTTAYAMDYWGQGTSVTVSS
VL: QIVLTQSPAIMSASLGEEITLTCSASSTVNYMHWYQQKSGTSPKLLIYSTSNLASGVPSRFSGSGSGTFYSLTIRSVEAEDAADYYCHQWSSYPYTFGGGTKLEIK
Broadly, the EC50 is the concentration that produces a half-maximal response. Broadly, the Kd is the concentration at which binding is half-saturated. With B1, the “EC50 of cell viability, Fab-Zap assay on Ramos cells (internalization)” value (from here on “EC50 of cell viability, Fab-Zap assay”) with human CD19 [1] turned out to be 0.0276 nM. For the same molecule, the results for the EC50 in the test with human CD19 [2] and in the test with cynomolgus monkey CD19 were 0.85 nM and 1.54 nM, respectively. Also, the dissociation constant Kd with human CD19 [3] stood at 0.949 nM.

B2: WBP7011_4.202.9 (antibody, mouse IgG2a, V domains shown)
VH: EIQLQQSGPELVKPGASVKVSCKASGYAFTSYNMYWVKQSHGKSLEWIGYIDPYNGDTTYNQKFKGKATLTVDKSSSTAYMHLNSLTSEDSAVYYCLTTAYAMDYWGQGTSVTVSS
VL: QIVLTQSPAIMSASLGEEITLTCSASSTVNYMHWYQQKSGTSPKLLIYSTSNLASGVPSRFSGSGSGTFYSLTIRSVEAEDAADYYCHQWSSYPYTFGGGTKLEIK
notes: also called W7011-4.202.9
With B2, the “EC50 of cell viability, Fab-Zap assay” value in the test with human CD19 [1] stood at 0.0236 nM. In addition, the EC50 with human CD19 [2] amounted to 0.64 nM; with cynomolgus monkey CD19, 2.3 nM. Besides, the affinity with human CD19 [3], expressed as Kd, was 0.847 nM.

B3: WBP7011-4.100.1 (antibody, V domains shown)
VH: EVQLQQSGPELVKPGASVKMSCKASGYTFTSYVIHWVKQKPGQGLEWIGYINPYNDGAEYTEKFKGKATLTSDKSSSTAYMELSSLTSEDSTVYYCARGPYYYGGSPFDYWGQGTTLTVSS
VL: DAVMTQTPLSLPVSLGDQASISCRSSQSLENSNGNTYLNWYLQKPGQSPQLLIYRVSNRFSGVLDRFSGSGSGTDFTLKISRVEAEDLGVYFCLQVTHVPYTFGGGTKLEIK
notes: also called W7011-4.100.1
Turning to B3, in the test with human CD19 [1], the “EC50 of cell viability, Fab-Zap assay” value worked out at 0.0148 nM. In addition, the EC50 turned out to be 0.17 nM in the test with human CD19 [2] and 0.438 nM with cynomolgus monkey CD19. Binding in the test with human CD19 [3] was put at a Kd of 0.213 nM.

B4: WBP7011-4.15.10 (antibody, V domains shown)
VH: EVQLQQSGPELVKPGASVKMSCKASGYTFTSYVMHWMKQKPGQGLEWIGYINPYNDGTEYHEKFKGKATLTSDKSSSTAYMELSSLTSEDSAVFYCARGPYYYGGSPFDFWGQGTTLTVSS
VL: DAVMTQTPLSLPVSLGDQASISCRSSQSLENSNGNTYLNWYLQKPGQSPQLLIYRVSNRFSGVLDRFSGSGSGTDFTLKISRVEAEDLGVYFCLQVTHVPYTFGGGTKLEIK
notes: also called W7011-4.15.10
For the molecule B4, in the test with human CD19 [1], the “EC50 of cell viability, Fab-Zap assay” value came out at 0.0139 nM. In addition, the EC50 was found to be 0.31 nM with human CD19 [2] and 0.46 nM with cynomolgus monkey CD19. In the test with human CD19 [3], binding was characterised by a dissociation constant (Kd) of 0.17 nM.

B5: WBP7011_4.56.1 (antibody, V domains shown)
VH: EVQLQQSGPELVKPGASVKMSCKASGYTFTNYVIHWVKQKPGQGLEWIGYINPYNDGTEYNEKFKGKATLTSDTSSSTAYMALSSLTSEDSAVYYCTRGPYYYGGSPFDYWGQGTTLTVSS
VL: DAVMTQTPLSLPVSLGDQASISCRSSQSLENSNGNTYLNWYLQKPGQSPQLLIYRVSNRFSGVLDRFSGSGSGTDFTLKISRVEAEDLGVYFCLQVTHVPYTFGGGTKLEIK
notes: also called W7011-4.56.1
As for B5, the “EC50 of cell viability, Fab-Zap assay” value with human CD19 [1] was determined as 0.0084 nM. In addition, the EC50 came to 0.1 nM with human CD19 [2] and 0.438 nM with cynomolgus monkey CD19. Also, binding with human CD19 [3] was characterised by a dissociation constant (Kd) of 0.118 nM.

B6: WBP7011_4.108.3 (antibody, V domains shown)
VH: EVQLQQSGPELVKPGASVEMSCKASGYTFTSYVIHWLKQKPGQGLEWIGYINPYNDGAEYNEKFKGKATLTSDKSSSTAYMDLNSLTSEDSAVYYCARGPYYYGSSPFDYWGQGTTLTVSS
VL: DAVMTQTPLSLPVSLGDQASISCRSSQSLENSNGNTYLNWYLQKPGQSPQLLIYRVSNRFSGVLDRFSGSGSGTDFTLKISRVEAEDLGVYFCLQVTHVPYTFGGGTKLEIK
notes: also called W7011-4.108.3
Turning to B6, the “EC50 of cell viability, Fab-Zap assay” value with human CD19 [1] was determined as 0.0206 nM. The EC50 in the test with human CD19 [2] is 0.19 nM; with cynomolgus monkey CD19 it was 0.863 nM. Besides, the affinity with human CD19 [3], expressed as Kd, was 0.252 nM.

B7: WBP7011_4.194.10 (antibody, V domains shown)
VH: EVQLQQSGPELVKPGASVKMSCKASGYTFTSYVMHWVKQKPGQGLEWIGYINPYNDGTKYNEKFKGKATLTSDKSSSTAYMELSSLTSEDSAVYYCARGPYYYGSSPFDYWGQGTTLTVSS
VL: DAVMTQTPLSLPVSLGDQASISCRSSQTLENSNGNTYLNWYLQKPGQSPQLLIYRVSNRFSGVLDRFSGSGSGTDFTLKISRVETEDLGVYFCLQVTHVPYTFGGGTKLEIK
notes: also called W7011-4.194.10
Take B7: the “EC50 of cell viability, Fab-Zap assay” value with human CD19 [1] was 0.0117 nM. In addition, the EC50 with human CD19 [2] came out at 0.15 nM; in the test with cynomolgus monkey CD19 it was 0.996 nM. Further, the Kd with human CD19 [3] was 0.42 nM.

B8: WBP7011_4.231.5 (antibody, V domains shown)
VH: EVQLQQSGPELVKPGASVKMSCKASGYTFTSYVMHWVKQKPGQGLEWIGYINPYNDGTQYNEKFKGKATLTSDKSSSTAYMELSSLTSEDSAVYYCARGPYYYSPSPFDYWGQGTTLTVSS
VL: DAVMTQTPLSLPVSLGDQASISCRSSQSLENSNGNTYLNWYLQKPGQSPQLLIYRVSNRFSGVLDRFSGSGSGTDFTLKISRVEAEDLGVYFCLQVTHVPYTFGGGTKLEIK
notes: also called W7011-4.231.5
B8: the “EC50 of cell viability, Fab-Zap assay” value in the test with human CD19 [1] is 0.0085 nM. The EC50 in the test with human CD19 [2] amounted to 0.12 nM; in the test with cynomolgus monkey CD19 it was 0.628 nM. This molecule also yielded a Kd in the test with human CD19 [3] of 0.17 nM.

B9: WBP7011_4.191.6 (antibody, mouse IgG1, V domains shown)
VH: EVQLLQSGPELVKPGASVKMSCKASGYTFTDYVIHWVKQRPGQGLEWIGYINPYNDGSEYSEKFKGKATLTSDKSSSTAYMELSSLTSEDSAVYYCARGPYYYGGSPFDYWGQGTTLTVSS
VL: DAVMTQTPLSLPVSLGDQASISCRSSQSLENSNGNTYLNWYLQKPGQSPQLLIYRVSNRFSGVLDRFSGSGSGTDFTLKISRVEAEDLGVYFCLQVTHVPYTFGGGTKLEIK
notes: Mouse monoclonal from hybridoma; isotype printed only for the sister subclone 4.191.3 (mouse IgG1, kappa); also called W7011-4.191.6
Take B9: the “EC50 of cell viability, Fab-Zap assay” value with human CD19 [1] was found to be 0.0191 nM. The molecule also registered an EC50 with human CD19 [2] of 0.07 nM.

B10: WBP7011-4.106.3 (antibody, V domains shown)
VH: EVQLQQSGPELVKPGASVKMSCKASGYTFSSYVIHWVKQKPGQGLEWIGYINPYNDGAEYAEKFKGKATLTSDKSSSSAYMELGSLTSEDSAVYYCARGPYYYGGSPFDYWGQGTTLTVSS
VL: DAVMTQTPLSLPVSLGDQASISCRSSQSLENSNGNTYLNWYLQKPGQSPQLLIYRVSNRFSGVLDRFSGSGSGTDFTLKISRVEAEDLGVYFCLQVTHVPYTFGGGTKLEIK
notes: also called W7011-4.106.3
Turning to B10, the “EC50 of cell viability, Fab-Zap assay” value with human CD19 [1] came to 0.0136 nM. Besides, the EC50 with human CD19 [2] came out at 0.23 nM; in the test with cynomolgus monkey CD19 it was 0.496 nM. This molecule showed a Kd in the test with human CD19 [3] of 0.231 nM.

B11: WBP7011-4.34.11 (antibody, V domains shown)
VH: EVQLQQSGPELVKPGASVKMSCKASGYTFTNYVIHWVKQKPGQGLEWIGYFNPYNDGTEYNEKFKAKATLTSDKSSSTAYMELSSLTSEDSAVYYCAKGPYYYGSSPFDYWGQGTTLTVSS
VL: DAVMTQTPLSLPVSLGDQASISCRSSQSLENSNGNTYLNWYLQKPGQSPQLLIYRVSNRFSGVLDRFSGSGSGTDFTLKISRVEAEDLGVYFCLQVTHVPYTFGGGTKLEIK
For the molecule B11, the “EC50 of cell viability, Fab-Zap assay” value with human CD19 [1] came out at 0.007 nM. In addition, the EC50 in the test with human CD19 [2] was 0.23 nM; in the test with cynomolgus monkey CD19 it was 0.443 nM. In the test with human CD19 [3], this molecule displayed a Kd of 0.181 nM.
